According to publication PMC7911018 (2021):

Molecular target: HER2 ectodomain-Fc (96 kDa) (human, UniProt P04626 23-652)
Assay: SPR

| Kd | Binder |
| --- | --- |
| 8.1 nM | VHH A10 (anti-HER2 nanobody) (VHH) VHH: DVQLQASGGGFVQPGGSLRLSCAASGATSNISNMGWFRQAPGKEREFVSAISRAESRPLYYADSVKGRFTISRDNSKNTVYLQMNSLRAEDTATYYCAYMPLVRHKAYWGQGTQVTVSS |
| 40.5 nM | A10C (A10 CDRs grafted into the C8WT scaffold) (VHH) VHH: DVQLQASGGGLAQPGGSLRLSCAASCDRMYWVRQAPGKGLEWVSSCDRYYADSVKGRFTISRDNAKNTLYLQMNSLKLEDTALYFCACDRGQGTQVTVSS |
